These results are taken from patent US20130065819.

The target in data set [1] is N-terminal FLAG tagged TOE1 mutant D373A.
The target in data set [2] is human TOE1 (Target of Egr1).
The target in data set [3] is N-terminal FLAG tagged TOE1 mutant D282A.
In data set [4] the target is TOE1 mutated at the ExPASy-predicted caspase-1 cleavage site FTAD (position 214-217).
Data set [5] concerns the target N-terminal FLAG tagged TOE1 mutant D195A.
Data set [6] has as its target N-terminal FLAG tagged TOE1 mutant D363A.

B1: recombinant caspase-1 (Calbiochem) (protein)
chain: NPAMPTSSGSEGNVKLCSLEEAQRIWKQKSAEIYPIMDKSSRTRLALIICNEEFDSIPRRTGAEVDITGMTMLLQNLGYSVDVKKNLTASDMTTELEAFAHRPEHKTSDSTFLVFMSHGIREGICGKKHSEQVPDILQLNAIFNMLNTKNCPSLKDKPKVIIIQACRGDSPGVVWFKDSVGVSGNLSLPTTEEFEDDAIKKAHIEKDFIAFCSSTPDNVSWRHPTMGSVFIGRLIEHMQEYACSCDVEEIFRKVRFSFEQPDGRAQMPTTERVTLTRCFYLFPGH
Take B1: the “in vitro caspase-1 cleavage of immunoprecipitated mutant, Western blot” value in data set [1] was “caspase-1 cleaves TOE1 at residues 363 and 373 as evidenced by the lack of a 17 kDa fragment in the TOE1 mutants containing an alanine at residues 363 and 373”; in data set [3], “two of these mutations were found to prevent the appearance of a cleavage product of TOE1 upon incubation with caspase-1. These consisted of the D195 and D282 residues within the sites GLID and DIHD respectively”; in data set [5], “two of these mutations were found to prevent the appearance of a cleavage product of TOE1 upon incubation with caspase-1. These consisted of the D195 and D282 residues within the sites GLID and DIHD respectively”; in data set [6], “caspase-1 cleaves TOE1 at residues 363 and 373 as evidenced by the lack of a 17 kDa fragment in the TOE1 mutants containing an alanine at residues 363 and 373”. Further, in data set [2], the “in vitro digestion of immunoprecipitated TOE1 with recombinant caspase-1, Western blot” value is “We found that TOE1 was indeed processed by caspase-1, and generated multiple cleaved forms”. Moreover, the “in vitro caspase-1 cleavage of mutant, Western blot” value in data set [4] is given as “when the caspase-1 cleavage site predicted using the ExPASy software was mutated (FTAD), in vitro cleavage was maintained”.
